Test: soluble fraction after stress (log2 fold change); higher = more stays soluble; pooled small domains, quantitative proteomics
Details: stress: 75 degC
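Further: 20 min heating vs room temperature control held 20 min.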

HMGGGFLVPSLVGKSLEEARSLSELRGFKLEVGDYVISSEYPAGRVTRQNPANGAKGQEGDVIKVEVSS
soluble fraction (log2): -0.00395

HMGGGRELGLDPETGKKISVRLGKFGPFVQLGESGEEDKPVFANLGKNQSIATLSLEEAIALLARPK
soluble fraction (log2): 0.187

HMGGGVSSSLAGNVFKVLLPAGSVVEQGQAVIVLEAMKMETEVNAPKSGSVSSVFVNEGDTVEVGDLLFAI
soluble fraction (log2): -0.0461

HMGGKWKAIIIYHLKNGPKRFGELRRALISSTETVLSNQLKQLEQDGLVSRQVFGTKPPLKTVYSLTDFG
soluble fraction (log2): -3.3

HMGGKWKLRILLALENSAQDALRYGEIKNIVSGITDMMLSQSLRELTADGLIERRQYQEIPPKVEYRLS
soluble fraction (log2): -2.31

HMGGKWKPIILYYININSVARYSELKRFIPSINERMLTRQLRELEEDNLIERKVYPIVPPKVEYRLTEYGK
soluble fraction (log2): -0.179

HMGGKWSMPIIYILSKGKMRFKELERSVEGINTRMLVKELKNMEANGIVTREVFPTVPPTVEYALT
soluble fraction (log2): -0.968

HMGGKYKGVIIGHLIDKTLRYNELQKLISHATPKMLIQQLKELEADGIIQRKLYPVVPPKTEYSLTERG
soluble fraction (log2): -0.973

HMGGLAEGTKITLQNTVNVRASMGEDAEKIGTAYAGEKVTVIMSYAEGWTKVTWNDKTGYIKTSLL
soluble fraction (log2): -1.5

HMGGLAHPASGEEMEHLFAHLEGELLKSGFLFPPDKAAGMMRNIRAMLTRADFTDQEVRTLRGMIVALSRG
soluble fraction (log2): -1.62

HMGGNDALEIAKSNPQVIEVLGEPVTKDGMGSYSVNYKNGHKTSEATIPIEGPNGTATLHVKTSGSDDAL
soluble fraction (log2): 0.237

HMGGNKILTWKTDAATTRNQVPINERKEGLEISYKNEERNWVAEKYVGTSFSDDKWGVDYNWNQD
soluble fraction (log2): 0.951

HMGGPAGPDFTYTGDDLTRIDYDDGSYKVFTYDAGKLSQIDFTSGGTTTRKTFVYSGDTLIRVDQTI
soluble fraction (log2): -0.179

HMGGPEPIPAQIREGDTVYVTKFKQLGLVLKISEDTAEVQIGPLRATVAKTELSKVDATATEHR
soluble fraction (log2): -0.0822

HMGGQFVKVEVIAQIFGVTVRRVQQLTQEGVVKTTEIPGEGRRYELVPTIKTYIQYLSDKAY
soluble fraction (log2): -4.02

HMGGTFLVRILDPALNIRAQPSLTARINGVIRDKSVYTIVATSFEPKTQITWGKLKSGAGWISIGSKYVKK
soluble fraction (log2): -3.4

HMGGVTVQNRETHVNSTVNVRSEQTTESERVALAYQGDAITQIESYENGWSKVEYKGLSGYVMTEYL
soluble fraction (log2): 0.275

HMGGYLIGDVAQMVGLSRDALRFYEKKGIIRADKKENGYRYYSEDDIYRLMYILYHRKMNTSLEEIGGLMS
soluble fraction (log2): -0.722

HMGHKKLTIELQDEIIVLPKELEKYNLTVSDDKTSLIYTYKSRGEKTGITDLLRDIKDAGLRLKDLITEQ
soluble fraction (log2): 0.284

HMGHTVHAVPEAADRQRLDVFVGNLHPTISRAYIQKLSKEDQILVNGKPEKAGFKLRTGHSVSVPDMSE
soluble fraction (log2): 0.00554

HMGIAEAKRVIVRTLHDVLGPEADFLTEKIDVAQTAAELRVHAEKYRDMLVDMGKPKKSAAFWEAFEAALP
soluble fraction (log2): -0.588

HMGIAKLLTEQEYKIALLAAERRTNAMIAEEMNLTENTVKTHLKHIFDKVGIAGNAKNKRHLLADMMNSER
soluble fraction (log2): -0.552

HMGIDISAFSETALQVLRLQAAGYTAKEISEKLHITPRTVKYHASQNYRKLDAKNLVDAVQIAQALHI
soluble fraction (log2): -1.79

HMGIEQVELASRVRDAVDSLPHHLREIILLSYFQKMSYNQIAETLQVPLGTVKSRLHAAVASFAQAWTQSS
soluble fraction (log2): -0.712

HMGIFAQTTKWRDIYTVKKKDTIFGIANKYGLSLPELMEANPEMKQEGYMLQKGTTLFIPFASD
soluble fraction (log2): -1.32

HMGIGSTLTDGVRVYASDDEIVVNAPAESDVRIFNAGGAQLYAGRVADVRVAVAKGLYVVTVDGRSTKITV
soluble fraction (log2): -1.11

HMGIILDWELFEQFADKLKRKKVDFVIEPYLRFEGRRGEQSTLFIKDPSGNYLEFKAFKNIDMLFEK
soluble fraction (log2): -1.78

HMGIPIEAYHESLHRHYIDLWELLDTGKETLIDAEGNEVDKIHLLNAIRFNVNGMLHELLKE
soluble fraction (log2): -1.91

HMGIQYVASGHYARMETDAQGVSRLFPPESGAPDESDRLAALSPEVLTRLILPLGDFAPEDVEEMAVD
soluble fraction (log2): -0.0745

HMGIRAFDPEAFDERLKEFFSMIAPYKKLDTRSLQPHFPHHAKEVAERIRQLAEAGKIKVDGFYISEL
soluble fraction (log2): -0.587

HMGIRDIHITVNGESLKLSKKQNYIFVDIFDFYPFDLSILGGSKLITTINGEQAEFTSPLKDGDVVELYWK
soluble fraction (log2): -2.25

HMGISNEETFLLEKMSSGRRYSRKELDNLMGFEKTKTIRLLGSLINKGLVVAEGVNRARRYIR
soluble fraction (log2): -1.27

HMGISQAQAMQALRKLIEEEDKHTPLSDQTLMERLKAAGIPLARRTIAKYRESLGIPSAAQRK
soluble fraction (log2): -0.266

HMGISVEVPDLKNMSVAEAGSLLKNSGLSYAVVDSDYVKTISPGKILDQNPGRGLRVKKGRIVYLTINSL
soluble fraction (log2): -1.69

HMGITDHIYQDLKKRLENGNYPAGTRFPSESTLADEFSVNKMTMNKIVSMLAEQGYLIRGNRGAGTRVAEN
soluble fraction (log2): -0.399

HMGITPSIEMILEYFAFKESSETEANKFFNYYSSIGWLVGGKTKMKDWKASARNWIMNQNKFQ
soluble fraction (log2): -4.63

HMGIVAPGTLKHLHAVGNSYYPDWETKRHELVTAVTKGRTSSSKELYEAEANRLITRIEELLMTAAQSV
soluble fraction (log2): -0.113

HMGIVTMPGQGSKMRFDFDATGDLPSSTSWRGMFAYANNTKRAYVSTGTTMGGYNGWRQLIAMDEYGNYQT
soluble fraction (log2): 0.0821

HMGKEIEAPDFKNMTLKEAKIAAKEYKIRIKKGDEVVSEEVEKGRIVSQDPDAGTTIKTGSTVTVNISKGL
soluble fraction (log2): 0.131

HMGKELSTVVVPDLTGLSVLEARNVLTKVGLQLTPSGAGIAFKQIPTPGTRLTLGATVTVYFVATGY
soluble fraction (log2): -1.47

HMGKELTVPDVVGQNYVSAQEKLIAGGFQVEVADSVYDSRYGRGVVVDQNPHKDTRVKPGRLIYVTVNA
soluble fraction (log2): -0.157

HMGKEWPTPDNVEEWKKLVKKARLWPIQADQAQSEETRERNRKKWELFVAYAKRFGYRAGIGETGKPFVNN
soluble fraction (log2): -1.15

HMGKINEIVANNIAILRKKNRLSLEELGKLSGVSKSMLALIEKGDGNPTLGILWKIANGLGVPFDELTRRP
soluble fraction (log2): -1.35

HMGKLGENIKRIREGMGLSQRQFGELIGKSDSQIWSYENDRTDILASTLYKIAAVANVDFNNLMAGIIP
soluble fraction (log2): -1.07

HMGKLYRDRYAPLEPDGARAGDRVFIISLEKEGTLERIDLPRKTATVLLGSSIRSTFPLDDLYQPRG
soluble fraction (log2): -0.25

HMGKMTSTLGVHIAAYRKEHGETVAQFASRSGVSVSSIRRIESGISDPSADLVWKISRHMGMTMDDLFKKM
soluble fraction (log2): -3.74

HMGKNISEEDMLGYFKKIDLDYDAETKEVIAPTFRHDLFRLADLAEEVARFFGYDNIPTTLPSGEAT
soluble fraction (log2): 0.185

HMGKPAGLIRELGNHPEDEKPVTLNNGRFGPYVKHGKVMASLTKADSPDDITFDRAIELIAIKAEKMAAKG
soluble fraction (log2): 0.173

HMGKPTPASQVATRWLTGNLPESLPVAGPAPSFEALARTVSTDLHPRSVLQELVRLGVAEEANGVVTLRRQ
soluble fraction (log2): 0.0474

HMGKPVTMELLIPYSQGSLVHRISEAGEVAKTEYQNDGTYMQVTFTPSAKDHALMQEVASYRI
soluble fraction (log2): 0.653

HMGKSDDSLAAEKFIQHVRKNGELSYEQAYRMVHAYFPDFRNFEGMVSGAVKSGYLILIQKSTGLFLRAKE
soluble fraction (log2): -3.68

HMGKTEMPFSTFLTEVDKGNIVSVDIRGSEISGNFRDGKGFKTYSPNYPNLVEKLSAKGVAITAGPR
soluble fraction (log2): 0.389

HMGKTKFTEMSALELKAYAELNNNSMHWVYRMLYIGGGDVGFRKGMKELGYSGKFIWMTLERLKKS
soluble fraction (log2): -1.24

HMGKTTQEIEERSSTSTLTLTQTPKEIISVQGKKSDQSFFTNIQYTQNGKVIVPKQTGIYDTIKVVFTVSL
soluble fraction (log2): -1.48

HMGKVLIYKPNMSVSDVAIRLGISNAEIIKRLMGLGVMTSINQTIDRDTIELVAMDLGFSIEN
soluble fraction (log2): -1.81

HMGLAGVQSDVKVSFDGDLLVVTSDIARSFNLFAVDGRLIRSVNLIAGRNEIRGLERGFYLAEKQKIFV
soluble fraction (log2): -1.93

HMGLAWTVEGRTVLLGRTADRIELYNVGGGLVALARESDRISAPGVGLYVVRVVSDGQSVSQKIWIT
soluble fraction (log2): -2.39

HMGLDMSLEREQHRALREASQWYARLADEQVDSDAERAWRHWVAADEANQRAWQYIEAVSQRFDG
soluble fraction (log2): -0.605

HMGLDNEGFERLRQKITRLLSEEALPVKELVDSFASKMRQEVLETLAFLQQEGVIEEKNGKLFLK
soluble fraction (log2): -0.189

HMGLIDNLTRIMEKKNISAYQLEKAGIVKQTTFTSWKKGTQPALDKIIKIMQYIEVTPNELFGY
soluble fraction (log2): -2.95

HMGLKWVYYTNIEPDGNKINNQKLYDILKQKFVYPVIISRDELDSMELKDLTYDSYIDVEGRYFKPYNLD
soluble fraction (log2): -2.04

HMGLNPSILVKLGNANIKTIDNLADLASDELKEILEDISITSKEADEIIMRARSSWFEEDDKKEDNI
soluble fraction (log2): 0.0765

HMGLPAWVPQNYIDRVTAIYDYSADKDDELTFNEGSTIFVLKKNDDGWWEGVMDGVTGLFPGNYVEAT
soluble fraction (log2): -0.971

HMGLQLTPVRRRVLEILLHEHRALGAYDILDKLRSEGLGSQPPVAYRALDFLVTHGFAHKIERLNAF
soluble fraction (log2): -0.829

HMGLQRLTVSPEDAGVRIDKYLAEQLPDITRSYLQKLLKDGSVQMNGKPVKASTKTAVGAVIALTIPEP
soluble fraction (log2): -0.26

HMGLSAEAARMAIQDAGLSKEDFAQKLGIKKVERVVEWEAGTSKPTFVQAQKIANATNIPFGYLFLVNPPK
soluble fraction (log2): 0.285

HMGLTRRAQLEVADANLKRLYPGMHQSWVTAIAEYLHSSYWRYINSLEPEYAASIQRVYEQHIDAM
soluble fraction (log2): -0.0229

HMGLTYEQILTDVQRFVTQNHADTLSNEGNPEEARKLLKDYILQYVQNRSYHVDGQTTEELVDSLYED
soluble fraction (log2): -0.231

HMGLVDSLEPLLRRVYEALPQRRSMTTERLAVAAGLDEESVKVALARLQLSAFVGVDERGWHRSL
soluble fraction (log2): -2.98

HMGLVLIDSYNDIGSAKLITNKIRNLGLIFEENENKINVFAGPFEKNDINLKIDFLIRNGYTNAQLY
soluble fraction (log2): -3.08

HMGLVQQSAQKSDDAAKLMAANNLNAAQSKYQLPDEAEKDFFTFAFERGYAVEDFVDAGLVDKIMADFSA
soluble fraction (log2): -0.447

HMGLVVIGTEAGYPAEKAGILAGDRIRKLNGAAVPDYDTFLTALAARKGEPSAIELERDGKTLEVTVSPL
soluble fraction (log2): 0.105

HMGLWWTEAERELVKTTIEQLYKDTNIAEPVDSKNLRASIPALKAMRTGLSAENQARVDTLLGALQV
soluble fraction (log2): -0.462

HMGMAGILDSARMASFIQEKLGYGGGQIRASVMGGHGDDMVPLPRYSTVAGVPLSDVLTQNEIDEMFAQ
soluble fraction (log2): -0.0337

HMGMDALIGRRVFVSEEILPGDTGGRMAVDGDSWRAISVGTASNIPAGTEVRIRGHQSLVLEVEP
soluble fraction (log2): -0.169

HMGMEENLLKERKQILMDIMKSKEYQPMKVKELAMVLNVPKEDREELRYVLNELMNEGKIVESKKGKFSIA
soluble fraction (log2): 0.129
